Data: US20250263490A1 (VIB VZW, published 2025)
Each block holds one binder with its values, some of them ahead of it.

How the values were obtained:
D87L = target: T1, D87L; assay: ELISA on coated antigen (100 ng), anti-VHH-HRP, A450
T1 construct: also called human CI-M6PR Dom1-3His6 D87L
T1 chain: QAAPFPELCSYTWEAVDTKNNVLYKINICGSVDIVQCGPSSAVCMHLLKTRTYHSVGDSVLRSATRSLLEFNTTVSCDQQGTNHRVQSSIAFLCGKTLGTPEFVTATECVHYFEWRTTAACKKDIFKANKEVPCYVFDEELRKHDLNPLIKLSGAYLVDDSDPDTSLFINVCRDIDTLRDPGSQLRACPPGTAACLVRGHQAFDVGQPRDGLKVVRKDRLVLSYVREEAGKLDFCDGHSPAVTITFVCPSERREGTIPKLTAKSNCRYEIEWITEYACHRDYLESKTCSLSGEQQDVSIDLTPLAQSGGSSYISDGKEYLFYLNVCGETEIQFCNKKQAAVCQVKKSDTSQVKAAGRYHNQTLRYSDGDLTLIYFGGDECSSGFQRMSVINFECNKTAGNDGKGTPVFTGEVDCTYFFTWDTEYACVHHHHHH
Method: (§1) To determine the effect of site-directed mutations, an ELISA was performed. To this end, 100 ng of each successfully purified mutant was coated per well on Nunc Maxisorp plates in 50 mM MES, 150 mM NaCl, pH 6.5 buffer overnight at 4° C. […] Coating-only controls were included for background correction. […] Reactions were stopped after five minutes using a 2N H₂SO₄ solution and plates were read at 450 nm, with a 655 nm background correction. Data were analyzed using the GraphPad Prism 9 software.

M85E = target: T2, M85E; assay: as above
T2 construct: also called human CI-M6PR Dom1-3His6 M85E
T2 chain: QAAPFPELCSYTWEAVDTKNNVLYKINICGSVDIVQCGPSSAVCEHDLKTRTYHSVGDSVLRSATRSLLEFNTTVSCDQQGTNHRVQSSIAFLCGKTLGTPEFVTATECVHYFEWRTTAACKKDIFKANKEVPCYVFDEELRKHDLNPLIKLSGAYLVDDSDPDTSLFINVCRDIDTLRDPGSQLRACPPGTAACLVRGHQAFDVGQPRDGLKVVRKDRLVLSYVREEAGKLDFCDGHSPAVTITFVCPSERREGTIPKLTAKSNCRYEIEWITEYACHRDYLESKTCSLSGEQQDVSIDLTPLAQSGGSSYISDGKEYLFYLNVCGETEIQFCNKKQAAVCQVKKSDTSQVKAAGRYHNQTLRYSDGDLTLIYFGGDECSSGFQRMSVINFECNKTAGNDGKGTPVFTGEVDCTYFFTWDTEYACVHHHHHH
Method: as §1

[1] = target: T3, mouse cation-independent mannose-6-phosphate receptor on cells (mouse, UniProt Q07113 36-2483); assay: flow cytometry, FLAG3-His6 VHH on mouse bEND3 cells
T3 construct: whole, on cells; also called mouse CI-M6PR of bEND3 cells; mCI-M6PR
T3 sequence (Q07113 36-2483): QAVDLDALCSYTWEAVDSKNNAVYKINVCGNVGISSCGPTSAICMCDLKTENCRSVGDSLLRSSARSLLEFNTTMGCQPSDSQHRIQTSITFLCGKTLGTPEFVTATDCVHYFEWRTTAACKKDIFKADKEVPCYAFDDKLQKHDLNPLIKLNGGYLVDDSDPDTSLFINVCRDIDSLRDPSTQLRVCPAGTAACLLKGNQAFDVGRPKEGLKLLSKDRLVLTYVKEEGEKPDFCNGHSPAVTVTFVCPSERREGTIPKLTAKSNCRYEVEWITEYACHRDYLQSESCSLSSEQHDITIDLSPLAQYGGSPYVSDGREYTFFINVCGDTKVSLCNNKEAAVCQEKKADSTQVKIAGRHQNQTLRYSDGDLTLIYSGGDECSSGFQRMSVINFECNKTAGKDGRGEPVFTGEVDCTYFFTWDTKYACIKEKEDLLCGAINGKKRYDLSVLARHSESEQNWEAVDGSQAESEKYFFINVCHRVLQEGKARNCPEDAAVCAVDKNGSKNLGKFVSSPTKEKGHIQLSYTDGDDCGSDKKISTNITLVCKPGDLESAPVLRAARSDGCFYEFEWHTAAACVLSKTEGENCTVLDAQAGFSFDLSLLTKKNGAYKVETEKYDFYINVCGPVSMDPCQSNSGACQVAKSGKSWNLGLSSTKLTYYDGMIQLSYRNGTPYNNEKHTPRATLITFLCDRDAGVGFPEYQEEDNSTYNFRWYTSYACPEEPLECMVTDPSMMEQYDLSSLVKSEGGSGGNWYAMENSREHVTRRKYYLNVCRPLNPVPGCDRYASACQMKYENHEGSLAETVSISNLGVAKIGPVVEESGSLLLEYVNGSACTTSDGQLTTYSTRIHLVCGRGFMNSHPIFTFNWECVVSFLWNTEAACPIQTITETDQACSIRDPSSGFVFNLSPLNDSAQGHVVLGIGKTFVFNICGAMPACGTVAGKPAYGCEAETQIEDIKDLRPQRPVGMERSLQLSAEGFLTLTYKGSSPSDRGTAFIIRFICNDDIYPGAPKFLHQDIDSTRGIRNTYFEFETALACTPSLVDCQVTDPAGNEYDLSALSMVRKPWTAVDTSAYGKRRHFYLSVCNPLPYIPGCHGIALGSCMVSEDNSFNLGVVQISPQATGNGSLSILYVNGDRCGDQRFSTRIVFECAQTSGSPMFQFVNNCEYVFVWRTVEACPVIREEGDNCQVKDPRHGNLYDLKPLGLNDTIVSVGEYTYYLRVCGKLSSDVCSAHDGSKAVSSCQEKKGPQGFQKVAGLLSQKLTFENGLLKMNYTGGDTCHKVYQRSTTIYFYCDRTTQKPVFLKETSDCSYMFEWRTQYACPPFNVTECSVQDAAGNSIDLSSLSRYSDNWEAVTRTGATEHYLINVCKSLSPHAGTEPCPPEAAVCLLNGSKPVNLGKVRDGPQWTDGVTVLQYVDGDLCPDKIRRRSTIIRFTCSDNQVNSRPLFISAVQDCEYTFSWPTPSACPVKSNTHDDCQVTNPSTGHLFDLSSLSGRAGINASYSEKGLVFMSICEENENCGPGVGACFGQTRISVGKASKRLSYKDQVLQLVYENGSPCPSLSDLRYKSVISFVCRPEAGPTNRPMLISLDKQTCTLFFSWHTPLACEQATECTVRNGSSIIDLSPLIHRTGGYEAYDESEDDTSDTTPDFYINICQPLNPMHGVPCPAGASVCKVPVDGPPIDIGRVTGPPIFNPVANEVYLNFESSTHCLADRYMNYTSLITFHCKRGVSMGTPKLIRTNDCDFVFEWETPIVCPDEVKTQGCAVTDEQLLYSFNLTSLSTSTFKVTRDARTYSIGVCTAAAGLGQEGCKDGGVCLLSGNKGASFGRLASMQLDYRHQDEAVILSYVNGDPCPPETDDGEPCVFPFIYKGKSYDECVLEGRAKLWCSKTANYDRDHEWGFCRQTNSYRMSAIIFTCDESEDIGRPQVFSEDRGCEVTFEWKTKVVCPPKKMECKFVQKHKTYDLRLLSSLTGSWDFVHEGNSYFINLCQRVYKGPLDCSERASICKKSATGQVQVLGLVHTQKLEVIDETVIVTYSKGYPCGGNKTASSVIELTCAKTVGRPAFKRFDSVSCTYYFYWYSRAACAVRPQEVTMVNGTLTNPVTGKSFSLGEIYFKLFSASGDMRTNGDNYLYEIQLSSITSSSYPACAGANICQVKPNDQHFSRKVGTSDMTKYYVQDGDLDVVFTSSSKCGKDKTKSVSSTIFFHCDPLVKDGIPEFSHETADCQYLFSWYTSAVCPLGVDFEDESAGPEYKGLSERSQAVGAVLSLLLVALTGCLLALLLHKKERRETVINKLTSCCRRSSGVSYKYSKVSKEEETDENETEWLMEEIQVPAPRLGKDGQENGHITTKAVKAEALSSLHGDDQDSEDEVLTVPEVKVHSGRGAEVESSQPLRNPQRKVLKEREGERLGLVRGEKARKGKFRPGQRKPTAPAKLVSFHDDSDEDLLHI
From the text: Synthetic DNA fragments encoding VHHs were ordered (IDT, Leuven, Belgium) and subcloned into an E. coli expression vector under control of an IPTG-inducible lac promoter, in frame with N-terminal PelB signal peptide (which directs the recombinant proteins to the periplasmic compartment) and C-terminal FLAG3 and His6 tags. […] VHH proteins were purified from these clones by means of IMAC chromatography followed by desalting according to well established procedures¹⁰⁶. Cells used herein were recovered using cell dissociation non-enzymatic solution (Sigma Aldrich, cat. #C5914-100ML) and resuspended to a final concentration of 1,000,000 cells/mL in FACS buffer. Cells were incubated with different concentrations of purified FLAG3-tagged VHHs for 30 minutes on ice with shaking, followed by washing and incubation with mouse M2 anti-Flag mAb (Sigma Aldrich, cat. #F-1804) in FACS buffer for 30 min on ice with shaking, followed again by washing. […] Flow cytometry and analysis were done on an Attune NxT Flow Cytometer (Thermo Fisher Scientific).
Moreover, cross-reactivity to mouse CI-M6PR was analyzed, in view of the amino acid homology between mouse and human being overall about 80% identity, but for domain 1-3 of CI-M6PR just about 75% identity.

[2] = target: T4, recombinant human domain 1-3His6 of the cation-independent mannose-6-phosphate receptor (human, UniProt P11717 41-467); assay: BLI exp 2, dissoc pH not printed (between 7 and 6, presumably 6.5); pH not given; row between pH 7 and pH 6 (6.5 in the VHH1, VHH7 and VHH8 blocks)
T4 construct: Biotinylated (NHS-PEG4-biotin) for BLI; Glycosylated; also called hDom1-3His6; hCI-M6PRD1-D3

[3] = target: T4, recombinant human domain 1-3His6 of the …; assay: BLI at pH 7.4, 1st of 2 repeats; BLI, biotinylated hDom1-3His6 on streptavidin tips, pH 7.4, experiment 1
Method: For each of the 11 anti-CI-M6PR VHHs, a biolayer interferometry (BLI) experiment was performed in which the hDom₁₋₃His₆ was biotinylated and coupled to streptavidin biosensor tips. Afterwards, the tips were incubated with serially diluted VHHs during the association phase and dissociation was performed at pH 7.4. Similarly, dissociation was performed at pH 7.0, pH 6.0 and pH 5.0 as well after regeneration of the biosensor tips. […] The anti-CI-M6PR antibody (clone 2G11) and GBP were used as positive and negative controls, respectively.
Analysis of the binding kinetics was performed using an Octet Red96 (FortéBio) device with Streptavidin SA Biosensor tips (VWR 733-2145). Therefore, 1 mL of human domain₁₋₃His₆ (0.5 mg/mL in 50 mM MES, 150 mM NaCl, pH 6.5) was incubated at room temperature for 30 minutes with EZ-Link™ NHS-PEG4-Biotin (1 mg) (Thermo Fischer A39259) and NaHCO₃ (100 mM). Biotinylated human domain₁₋₃His₆ was purified using a Zeba spin desalting Column™ (7K MWCO, 2 mL, Thermo Fischer 89890) and 1 μg/mL was used for immobilization on the Streptavidin SA Biosensor tips. The loaded tips were dipped into a particular anti-CI-M6PR VHH solution, serially diluted in kinetics buffer (0.2M NaH₂PO₄, 0.1M Na⁺ citrate, 0.01% BSA, 0.002% Tween20, pH 7.4). This was followed by dissociation of the particular anti-CI-M6PR VHH in kinetics buffer of pH 7.4, followed by regeneration in Glycine (10 mM, pH 3) and neutralisation. Same cycle was repeated but the dissociation was performed at pH 7.0, 6.0, 5.0, 4.5 and 4.0. A reference well and reference sensors were subtracted from ligand sensors afterwards and Savitsky-Golay filtering was applied on the data. Fitting of the data was performed using a 1:1 model, grouped per pH of dissociation.

B3: anti-CI-M6PR VHH5 (VHH)
VHH: QVQLQESGGGLVQAGGSLKLSCAAAGRTFSRLAMGWFRQAPGKEREFVAAISENGDSIHYSDSVKGRFAVSRDNAKNTVYLQMNSLKPEDTAIYYCAADRAAYYCSGSGCYPSRAPAAASYDYWGQGTQVTVSS
notes: His6-tagged; made in Pichia pastoris, later also in E. coli WK6
EC50 (read off the curve) (D87L): ~2 nM
EC50 (read off the curve) (M85E): ~2 nM
kon [2]: 1.3e+06 M⁻¹ s⁻¹

B4: anti-CI-M6PR VHH4 (VHH)
VHH: QVQLQESGGGLVQAGGSLRLSCAASGRTFSNYVMGWFRQAPGKEREFVGSISQGGKMTYYPDSVKGRFTISRDNAKNTMYLQMDGLKPEDTAVYYCAVSRGYPMVRVSEVDYWGQGTQVTVSS
notes: His6-tagged; made in Pichia pastoris
Kd [3]: 2.33 nM
koff [3]: 0.00133 s⁻¹
kon [3]: 571000 M⁻¹ s⁻¹

Next, values leading:

EC50 (read off the curve) (D87L): ~4 nM
EC50 (read off the curve) (M85E): ~3 nM
B1: anti-CI-M6PR VHH8 (VHH)
VHH: QVQLQESGGGLVQAGGSLRLSCEASGRTFNTYNWGWFRQAPGKEREFVAAIRWSSSKTSYADSVKGRFTISRDNAKNTIYLQMNSLKPEDTAVYYCAASIVDFTTNPSHFGSWGQGTQVTVSS
notes: His6-tagged (Pichia pastoris)

EC50 [1]: ~8.5 nM
B2: anti-CI-M6PR VHH7 (VHH)
VHH: QVQLQESGGGLVQPGGSLRLSCAASGIIFSDNRMDWYRQAPGKQREWVATLASYGWKTYADSVKGRFTISRDNTKNTVYLRMNSLKPEDTAVYYCKASSPVLNDIWGQGTQVTVSS
notes: His6-tagged (Pichia pastoris)
